Results as given in the supplement of paper PMC10567573.

B1: ESRRA (parent)
chain: LGVAQRSLPLQDELAFAEDLVLDE
B2: LMNB1 (parent)
chain: LYKEELEQTYHAKLENARLSSEMN

Variants of: B1
Assay: protein stability index of a GFP-peptide fusion (GPS, HEK-293T) (PSI 1-6); higher = more stable
Settings: c terminus: a fixed tail appended
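Also: lentivirally expressed fusions sorted by FACS into six bins by GFP to DsRed ratio, PSI derived from sequencing read proportions per bin multiplied by bin number.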

Protein stability index: each site, then its substitutions
F16: N 3.63; D 3.47; T 5.04; H 3.46; E 3.61; L 2.96; S 4.66; W 2.45; R 3.03; C 3.86; Y 2.93; M 2.81
V21: A 5.06; N 5.49; G 5.31; T 5.39; Y 4.61; H 5.28; W 4.03; E 5.31; F 4.63; D 5.76; M 4.49; I 1.56; L 3.96
E18: G 5; S 4.4; A 4.25; V 3.65; C 4.09; W 3.11; Q 4.34; Y 3.48; T 4.81; F 3.3; P 4.64
L1: A 2.99; M 2.63; Q 3.21; W 1.74; G 3.19; E 4.04; K 2.34; V 2.8; F 2.81; Y 2.79; C 2.57; D 4.27
E13: V 2.64; W 3.24; M 3.16; N 5.15; D 2.5; H 4.44; C 3.38; A 1.75
Q11: G 3.38; R 2.94; V 3.14; D 4.92; Y 3.12; H 3.21; I 3.35
S7: H 2.29; Y 2.37; I 2.98; E 2.57; W 1.78; A 3.38; T 3.34; C 2.4; F 2.32; R 2.52; L 2.58; G 2.79; D 3.25; Q 3.18
L20: V 3.67; M 2.16; Q 4.21; P 5.75; E 3.12; T 5.16; S 4.4; A 4.42; G 5.51; F 4.98; Y 4.67; C 2.51; W 4.82; D 5.36; H 4.81
V3: P 2.73; D 3.69; M 2.12; K 2.39; R 2.58; N 3.1; G 3.15; A 2.92; Q 2.84; H 2.76; C 2.86; Y 2.16; T 2.92; S 2.64
R6: S 2.98; H 2.55; C 1.84; W 2.17; F 2.26; P 3.62; K 2.92; E 3.27; M 2.35; L 2.34; Y 2.16; V 3.09; A 3.14
G2: K 1.98; E 3.17; C 2.69; L 2.21; H 2.78; Y 1.89; I 1.89; A 3.14; N 3.08; D 3.02; S 2.63; W 1.79; P 3.92
P9: V 4.05; N 4.18; R 3.95; I 2.85; E 3.45; H 3.69; W 3.21; D 3.17; T 4.04; M 3.53; C 4.38; Q 4.66; F 3.54; L 3.89
A15: P 5.28; N 3.85; M 3.49; D 4.77; K 2.3; L 3.81; W 3.22; F 4.42; V 4.41; E 4.74; R 1.82
A4: W 2.3; T 2.43; S 2.81; F 2.23; Y 2.1; K 2.58; H 2.21; D 2.84; Q 3.33; G 2.41; R 1.86; V 2.39; I 1.59; C 2.02
L22: S 5.02; P 5.34; I 3.55; K 2.74; G 5.51; W 3.85; N 4.69; A 3.96; E 5.71; R 2.89; T 5.18; V 4.14; Q 3.81
L14: Q 5.27; W 4.37; R 5.33; D 5.68; M 2.13; V 4.92; A 5.24; T 5.5; Y 4.81; S 5.66; F 5.55; I 5.15
D12: L 1.88; T 1.86; N 3.19; F 1.46; M 2.37; V 2.22; W 2.04; R 1.95; A 3.13; P 4.59; Y 1.8; K 2.98
A17: S 4.49; Y 3.39; I 3.96; Q 5.4; D 4.99; F 4.19; H 4.95; P 5.19; W 2.02; N 5.35
L8: I 3.03; E 5; N 2.91; V 3.53; C 3.2; Q 3.72; S 2.83; G 3.74; P 3.71; W 3.63; A 3.17; K 4.38; F 2.33
E24: G 4.13; I 3.34; T 3.11; V 2.21; H 2.57; K 4.02; N 3.24; P 3.92; Y 2.53; W 2.21; R 3.38; S 3.13; M 2.95
L10: D 5.42; G 5.43; N 5.12; E 4.36; V 4.64; Q 5.45; P 4.33; F 4.97
D23: S 2.58; W 2.1; V 1.88; N 1.88; T 3.21; A 3.11; E 2.65; H 2.34; G 1.72; C 2.38; I 1.51; F 5.28; P 4.49; K 2.41
D19: I 1.94; P 4.89; A 1.89; H 1.83; W 2.23; K 2.49; Q 3.58; L 2.16; G 2.05; E 2.34
Q5: V 2.19; P 3.39; I 2.17; E 3.16; C 1.76; Y 1.97; T 2.39; N 2.63; S 4.29; D 2.77; W 2.07; K 2.39; M 2.91

Variants of: B2
Assay: as above
Settings: c terminus: a fixed tail appended

Protein stability index: each site, then its substitutions
K3: D 3.56; A 1.94; G 2.73; E 2.47; F 1.77; H 2.91; C 2.64
Y2: V 1.77; A 2.91; L 3.04; T 4.08; R 3.48; N 3.46; E 4.37; G 4.15; I 2.09; S 4.12; M 2.31; P 3.06; D 4.18; K 3.27; Q 4.21; W 1.5; F 1.96; C 2.78; H 4
L1: N 2.98; R 2.91; T 2.85; C 3.14; G 3.53; Y 3.24; I 2.5; D 4.03; M 3.06; A 2.92; W 2.21; F 2.27; P 4.45; S 2.9; E 3.99; K 2.97; Q 3.6; H 3.19; V 2.75
